Laboratory results as given in the RNAGym collection of RNA variant scans (doi:10.1073/pnas.2313332121).

B1: TPR t1 (parent)
chain: GACCAAUCUGCCCUCAGAGCUCGAGAACAUCUUCGGAUGCAGAGGAGGCAGGCUUCGGUGGCGCGAUAGCGCCAACGUCCUCAACCUCCAAUGCAUCCCACCACAUGAUGAUGCCUGAAGAGCCUUGGUUUUUUG

Variants of: B1
Assay: polymerase ribozyme fitness, log enrichment relative to wild type (log ratio); higher = more active; in vitro selection for triplet polymerase activity
Outline: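 A single round of triplicate in vitro selection, including frozen incubation at −7 °C, was applied to PCR-built, transcribed mutant libraries of each subunit of a heterodimeric triplet polymerase ribozyme. Illumina sequencing of input and output libraries retained genotypes with ≥10 input reads and ≥1 read per output. Fitness is the base-2 logarithm of genotype enrichment divided by wild-type enrichment, from inverse-variance-weighted replicate averages.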

| Variant | polymerase ribozyme fitness (log ratio) |
| --- | --- |
| GACCAAUCUGCCCUCAGAGCUCGAGAACAUCUUCGGAUGCAGAGGAGGCAGGCUUCGGUGGCGCGCUAGCGCCAACGUCCUCAACCUCCAAUGCGUCCCACCACAUGAUGAUGCCUGAAGAGCCUUGGUUUUUUG | -1.6 |
| GACCAAUCUGCCCUCAGAGCUGAAGAACAUCUUCGGAUGCAGAGGAGGCAGGCUUCGGUGGCGCGAUAGCGCCAACGUCCUCAACCUCCAAUGCAUUCCACCACAUGAUGAUGCCUGAACAGCCUUGGUUUUUUG | -3 |
| GACCAAUCUGCCCUCAGAGCUCGAGAACAUCUUCGGAUACAGUGGAGGCAGGCUUCGGUGGCUCGAUAGCGCCAACGUCCUCAACGUCCAAUGCAUCCCACCACAUGAUGAUGCCUGAAGAGCCUUGGUUUUUUG | -4.39 |
| GACCAAUCUGCCCUCAGAGCUCGAGUACAUCUUCGGCUGCAGAGGAGGCAGGCUUCGGUGGCGCGAUAGCGCCAACGUCCUCAACCUCCAAUGCAUCCCACCACAUGAUGAUGCCUGAAGAGCCUUGGUUUUUUG | -2.35 |
| GACCAAUCUGCCCUCAGAGCUCGAGAACAUCUGCGGAUGCAGAGGAGGCAGGCUUCGGUGGCGCGAUAGCGGCAACGUCCUCAACAUCCACUGCAUCCCACCACAUGAUGAUGCCUGAAGAGCCUUGGUUUUUUG | -7.55 |
| GACCAAUCUGCCCUCAGAGCUCGAGAACAUCUUCGGAUGCUGAGGAGGCAGGCUUCGGUGGCGCGAUAGCGCCAACGUCCUCAACCUCCAAUGCAUCCCACCACAUGAUGAUGCCUCAAGAGCCUUGGUUUUUUG | -4.87 |
| GACCAAUCUGCCCUCAGAGCUCGAGAACAUCUUCGGAUGCAGAGGAGGCAGGCUUCGGUGGCGCGAUAGCGCCAACGUCCUGAACAUCCAAUGGAUCCCACCACAUGAUGAUGCCUGAAGAGCCUUGGUUUUUUG | -3.45 |
| GACCAAUCUGCCCUCAGAGCUCGAGAACAUCUUCGGAUGCAGAGGAGGCAGGCUUCGGUGCCGCGAUAGCGCCAACGUCAUCAACCUCCAAUGCAUCCCACCACAUGAGGAUGCCUGAAGAGCCUUGGUUUUUUG | -6.27 |
| GACCAAUCUGCCCUCAGAGCUCGAGAACAUCUUCGGAUGCAGAGGCGGCAGGCUUCGGUGGCGCGAUAGCGACAACGUCCUCAACCUCCAAUGCAUCCCACCACAUGAUGAUGCCUGAAGAGCCUUGGUUUUUUG | 0.257 |
| GACCAAUCUACCCUUAGAGCUCGAGAACAUCUUCGGAUGCAGAGGAAGCAGGCUUCGGUGGCGCGAUAGCGCCAACGUCCUCAACCUCCAAUGCAUCCCACCACAUGAUGAAGCCUGAAGAGCAUUCGUUUUUUG | -1.98 |
| GACCAAUCUGCCCUCAGAGCUCGAGAACAUCUUCGGAUGCAGAGGAGGCAGGCUUCGGUGGCGCGAUAGCGCCAACGUCCUCAACCUCCAAUGCAUACCACCACAUGAUGAUGCCUGAAGAGUCUUGGUUUUUUG | -2.71 |
| GACCAAUCUGCCCUCAGAGCUCGAGAACAUCUUCGGAUGCAGAGGAGGCAGGAUACGGUGGCGCGAUAGCGCCAACGUCCUUAACCUCCAAUGCAUCCCACCACAUGAUGAUGCCUGAAGAGCCUUGGUUUUUUG | -0.263 |
| GACCAAUCUGCCCUCAGAGCUCGAGAACAUCUUCGGAUGCAGAGGAGGCAGGCAUCGGUGGCGCGAUAGCGCCAACGUCCUCAACCUCCAAUGUAUCCCACCACAUGAGGAUGCCUGAAGAGCCUUGGUUUUUUG | -5 |
| GACCAAUCUGCCCUCAGAGCUCGAGAACAUCUUCGGAUGCAGAGGAGGCAGGCUUCGGUGGCGCGAUAGCGUCAACGUCCUCAACCUCCAAUGCAUCCCACCACAUGAUGAUGCCUGAAGAGCCUUCGUUUCUUG | -1.97 |
| GACCAAUCUGCCCUCAGAGCUCGAGAACAUCUUCGGAUGCAGAGGAGGCAGGCUUCGGUGACGCGCUAGCGCCAACGCCCUCAACCUGCAAUGCAUCCCACCACAUGAUGAUGCCUGAAGAGCCUUGGUUUUUUG | -2.23 |
| GACCAACCUGACCUCAGAGCUCGAGAACAUCUUCGGAUGCAGAGGAGGCAGGCUUCGGUGGCGCGAUAGCGCCAACGUCCUCAACCUCCAAUGCAUCACACCACAUGAUGAUGCCUGAAGAGCCUUGGUUUUUUG | -6.8 |
| GACCAACCUGCCCUCAGAGCUCGAGAGCAUCUUCGGAUGCAGAGGAGGCAGGCUUCGGUGGUACGAUAGCGCCAACGUCCUCAACCUCCAAUGCAUCCCACCACAUGAUGAUGCCUGAAGAGCCUUGGUUUUUUG | -2.76 |
| GACCAAUCUGCCCUCAGAGCUCGAGAACAUCUUCGGAUGCAGAGGAGGCAGGCUUCGGUGGCGCGAUAGCGCCAACGUCCUAAACCUCCAAUGCAUCCCACCACAUGAUGAUGCCUGAAGAGCCUAGGUUUUUUG | -2.16 |
| GACAAAUCUGCCCUCAGAGCUCGAGAACAUCUUCGGAUGCAGAGGAGGCAGAAUUCGGUGGCGCGAUAGCGCCAACGUCCUCAACCUCCUAUGCAUCCCACCACAUGAUGAUGCCUGAAGAGCCUUGGUCUUUUG | -3.34 |
| GACCAAACUGCCCUCAGAGCUCGAGAACAUCUUCGGAUGCAGUGGAGGCAGGCUUCGGUGGCGCGAUAGGGCCAACGUCCUCAACCUCCAAUGCAUCCCACCACAUGAUGAUGCCUGAAGAGCCUUGGUUUUUUG | -6.28 |
| GACCAAUCUGCUCUCAGAGCUCGAGAACAUCUUCGGAUGCAGAGGAGGCAGGCUUCGGUGGCGCGAUAGCGCCAACGUCCUCACCCUCCAAUGCAUCCCACAACAUGAUGAUGCCUGAAGAGCCUUGGUUUUUUG | -1.99 |
